The nature of data set [1]: Saccharification of lignocellulose 2 with Trichoderma reesei culture solution and endoglucanase. In kind it is biochemical, Rice straw. The settings on record: Lignocellulose 2, 24 hours; cellulase 1.0 mg/mL + endoglucanase 0.1 mg/mL + β-glucosidase (Novozyme 188) 0.01 mg/mL. The protocol: (§1) Rice straw was used as cellulose. Cellulose was immersed in a 1% aqueous sulfuric acid solution, and then autoclaved for 30 minutes at 150° C. (Nitto Koatsu Co. Ltd.). After treatment, the resultant was subjected to solid-liquid separation into an aqueous sulfuric acid solution (hereinafter, referred to as “dilute-sulfuric-acid-treated solution”) and cellulose treated with sulfuric acid. Next, the cellulose treated with sulfuric acid was mixed and agitated with the dilute-sulfuric-acid-treated solution so that the solid content concentration was 10 wt %. Then the mixture was adjusted to around pH 5 using sodium hydroxide. The resultant was used as lignocellulose 2 for the following examples.
(§2) The changes in the amount of glucose generated when the enzyme composition had been caused to act on lignocellulose substrates were compared. The substrates were prepared by suspending 5 wt % lignocelluloses (1 to 3) (prepared in Reference Example 3) in 50 mM acetate buffer (pH5.2). Reactions were performed at 50° C. for 24 hours. The concentrations of the generated glucose were measured after adequate sampling. As a filamentous bacterium-derived cellulase mixture, commercially available Trichoderma reesei-derived cellulase (Celluclast, Sigma) was used. As endoglucanases, the mutant endoglucanases prepared in Example 2 and the wild-type endoglucanases prepared in Reference Example 1 were separately used. The following quantities of enzymes were added: 1.0 mg/mL cellulase, and 0.1 mg/mL endoglucanase (in an amount one tenth that of the cellulase).
(§3) Lignocelluloses (1-3) prepared in Reference Example 3 were used as substrates. The Trichoderma reesei culture solution prepared in Reference Example 4 was used as a filamentous bacterium-derived cellulase mixture. Lignocelluloses (1-3) were hydrolyzed in a manner similar to that in Example 7, except for the quantities of the enzymes added: cellulase (1.0 mg/mL); endoglucanase (0.1 mg/mL (in an amount one tenth that of the cellulase); and β-glucosidase (Novozyme 188) (0.01 mg/mL (in an amount one hundredth that of the cellulase).

A short description of data set [2]: Inhibition experiment with ferulic acid: degradation of phosphoric acid swollen cellulose. In kind it is biochemical. The settings on record: enzyme 0.5 μM, 1 hour, 50° C., parent at 0 mM = 100%.
Data set [3] in a line: Saccharification of lignocellulose 1 with Celluclast and endoglucanase. In kind it is biochemical, Rice straw. The conditions noted are these: 5 wt % Lignocellulose 1, pH 5.2, 50° C., 24 hours; 1.0 mg/mL cellulase + 0.1 mg/mL endoglucanase. The protocol:
(§4) Rice straw was used as cellulose. The cellulose was added to a small reactor (Taiatsu Techno Corporation, TVS-N2 (30 ml)), and then cooled with liquid nitrogen. An ammonia gas was fed to the reactor, thereby completely immersing the sample in the liquid ammonia. The reactor was closed using its lid, and then left to stand at room temperature for 15 minutes. Subsequently, treatment was performed for 1 hour in an oil bath at 150° C. After treatment, the reactor was removed from the oil bath, an ammonia gas leak was immediately performed within a draft chamber. The reactor was vacuumed using a vacuum pump to 10 Pa for drying. The resultant was used as lignocellulose 1 in the following examples.
as §2

Data set [4] in a line: Saccharification of lignocellulose 3 with Trichoderma reesei culture solution and endoglucanase. In kind it is biochemical, Rice straw. The settings on record: Lignocellulose 3, 24 hours; cellulase 1.0 mg/mL + endoglucanase 0.1 mg/mL + β-glucosidase (Novozyme 188) 0.01 mg/mL. The protocol: (§5) Rice straw was used as cellulose. The cellulose was immersed in water, and then autoclaved with agitation at 180° C. for 20 minutes (Nitto Koatsu Co. Ltd.). Pressure at this time was 10 MPa. After treatment, a solution component (hereinafter, referred to as “hydrothermally treated solution”) and the treated biomass component were subjected to solid-liquid separation by centrifugation (3000 G). The thus treated biomass component was used as lignocellulose 3 for the following examples.
as §2, §3

Data set [5] is described as follows: Saccharification of lignocellulose 1 with Trichoderma reesei culture solution and endoglucanase. In kind it is biochemical, Rice straw. The settings on record: Lignocellulose 1, 24 hours; cellulase 1.0 mg/mL + endoglucanase 0.1 mg/mL + β-glucosidase (Novozyme 188) 0.01 mg/mL. As for the experimental part:
as §4, §2, §3

Data set [6] is described as follows: Saccharification of lignocellulose 2 with Celluclast and endoglucanase. In kind it is biochemical, Rice straw. The settings on record: 5 wt % Lignocellulose 2, pH 5.2, 50° C., 24 hours; 1.0 mg/mL cellulase + 0.1 mg/mL endoglucanase. As for the experimental part:
as §1, §2

The nature of data set [7]: Activity to degrade phosphoric acid swollen cellulose. In kind it is biochemical. The settings on record: 1% phosphoric acid swollen cellulose, pH 5.2, enzyme 0.5 μM, 1 hour, 50° C.; glucose generated by each parent endoglucanase = 100%. As for the experimental part:
The term “identity” refers to the percentage of amino acid residues identical to and amino acid residues analogous to the other amino acid residues in all the amino acid residues overlapped when an optimum alignment is performed by introducing gaps or no gaps into two amino acid sequences and then aligning the two amino acid sequences. Such an identity can be found using a method known by persons skilled in the art, sequence analysis software, and the like (a known algorithm such as BLAST or FASTA). The term “endoglucanase activity” is as defined above and can be determined by adding an enzyme solution to a substrate solution of phosphoric acid swollen cellulose that has been dissolved in 50 mM acetic acid-sodium acetate buffer (pH 5.2) or the like, performing 1 hour of reaction at 30° C. to 85° C., stopping the reaction by changing the pH if necessary, and then determining the concentration of glucose in the reaction solution using a glucose determination kit, for example.
The mutants obtained in Comparative Example 1 were compared in terms of activity by a technique similar to that in Example 3. The concentration (g/L) of glucose generated by each parent endoglucanase under the above reaction conditions was determined to be 100%.

The nature of data set [8]: Inhibition experiment with vanillin: degradation of phosphoric acid swollen cellulose. In kind it is biochemical. The conditions noted are these: enzyme 0.5 μM, 1 hour, 50° C., parent at 0 mM = 100%.
Data set [9] is described as follows: Saccharification of lignocellulose 3 with Celluclast and endoglucanase. In kind it is biochemical, Rice straw. The settings on record: 5 wt % Lignocellulose 3, pH 5.2, 50° C., 24 hours; 1.0 mg/mL cellulase + 0.1 mg/mL endoglucanase. As for the experimental part:
as §5, §2

B1: EGAc Wild-type: Acidthermus cellulolyticus-derived endoglucanase, SEQ ID NO: 31, parent endoglucanase (protein)
chain: MPRALRRVPGSRVMLRVGVVVAVLALVAALANLAVPRPARAAGGGYWHTSGREILDANNVPVRIAGINWFGFETCNYVVHGLWSRDYRSMLDQIKSLGYNTIRLPYSDDILKPGTMPNSINFYQMNQDLQGLTSLQVMDKIVAYAGQIGLRIILDRHRPDCSGQSALWYTSSVSEATWISDLQALAQRYKGNPTVVGFDLHNEPHDPACWGCGDPSIDWRLAAERAGNAVLSVNPNLLIFVEGVQSYNGDSYWWGGNLQGAGQYPVVLNVPNRLVYSAHDYATSVYPQTWFSDPTFPNNMPGIWNKNWGYLFNQNIAPVWLGEFGTTLQSTTDQTWLKTLVQYLRPTAQYGADSFQWTFWSWNPDSGDTGGILKDDWQTVDTVKDGYLAPIKSSIFDPVGASASPSSQPSPSVSPSPSPSPSASRTPTPTPTPTASPTPTLTPTATPTPTASPTPSPTAASGARCTASYQVNSDWGNGFTVTVAVTNSGSVATKTWTVSWTFGGNQTITNSWNAAVTQNGQSVTARNMSYNNVIQPGQNTTFGFQASYTGSNAAPTVACAAS
modifications: Acidthermus cellulolyticus EGAc
For the molecule B1, the “Concentration of glucose generated, Culture solution + Wild-type” value in data set [1], in [4] and in [5] was 8 g/L each time. The “Relative activity to degrade phosphoric acid swollen cellulose” value in data set [2] (ferulic acid 0 mM) turned out to be 100%; in data set [2] (ferulic acid 5 mM) it was 65%; in data set [2] (ferulic acid 10 mM), 60%; in [2] (ferulic acid 15 mM) it was 55%; in data set [8] (vanillin 0 mM) it was 100%; in data set [8] (vanillin 5 mM) it was 50%. Moreover, the “Relative activity to degrade phosphoric acid swollen cellulose” value in data set [8] (vanillin 10 mM) was found to be 45%; in data set [8] (vanillin 15 mM), 40%. The “Concentration of glucose generated, Celluclast + Wild-type” value in data set [3], in data set [6] and in data set [9] was 11 g/L each time. For the same molecule, the Relative activity in data set [7] is listed as 100%.

B2: EGPa Mutant: mutant EGPa, SEQ ID NO: 26; residue corresponding to 273rd tryptophan substituted with alanine (protein)
chain: MEIKLFCVFIVFIILFSPFVIALSYPDVNYTAENGIIFVQNVTTGEKKPLYLHGVSWFGFELKDHVVYGLDKRNWKDILKDVKRLGFNAIRLPFCSESIRPDTRPSPERINYELNPDLKNLTSLEIMEKIIEYANSIGLYILLDYHRIGCEEIEPLWYTENYSEEQYIKDWIFLAKRFGKYPNVIGADIKNEPHGEAGWGTGDERDFRLFAEKVGREILKVAPHWLIFVEGTQYTHVPNIDEIIEKKGWWTFAGENLMGVKDYPVRLPRGKVVYSPHVYGPSVYMMDYFKSPDFPNNMPIIWETHFGYLTDLNYTLVIGEWGGNYEGLDKVWQDAFVKWLIKKKIYNFFYWCLNPESGDTGGIFLDDWKTVNWEKMRVIYRLIKAANPEFEEPLYIILKTNATTSILGVGERIRIYWYTNGKVIDSNFAHSSEGEMNITVTKSMTLYIIVKKGNQTLRKELKLYVIGGNYGSNISTTQLVTPKKGGERISTSLKLAISLLFILLFVWYLLREKH
modifications: Pyrococcus abyssi EGPa W253A
notes: residue corresponding to 273rd tryptophan substituted with alanine
As for B2, the “Concentration of glucose generated, Culture solution + Mutant” value in [1] is reported as 13 g/L; in data set [4], 12 g/L; in [5], 11 g/L. Besides, the “Relative activity to degrade phosphoric acid swollen cellulose” value in [2] (ferulic acid 0 mM) stood at 100%; in [2] (ferulic acid 5 mM), 95%; in [2] (ferulic acid 10 mM), 90%; in data set [2] (ferulic acid 15 mM), 90%; in data set [8] (vanillin 0 mM) it was 100%; in [8] (vanillin 5 mM) it was 90%. In addition, the “Relative activity to degrade phosphoric acid swollen cellulose” value in [8] (vanillin 10 mM) and in data set [8] (vanillin 15 mM) was 90% throughout. For the same molecule, the “Concentration of glucose generated, Celluclast + Mutant” value came to 14 g/L in data set [3], 16 g/L in data set [6] and 15 g/L in data set [9]. In addition, the Relative activity in [7] was determined as 100%.

The values are drawn from patent US9193963B2, “Mutant endoglucanase” (Toray Industries, Inc., priority 2011, dated 2015).
